Source: article PMC11372445 (Cell Reports, 2024)

Tests used:
[1] = target: K6 diUb phosphorylated on S65 of the proximal Ub (UniProt P0CG47, K6R); assay: pull-down
[2] = target: K6 diUb phosphorylated on S65 of the distal Ub (UniProt P0CG47, K6R); assay: pull-down
[3] = target: K6 diUb phosphorylated on S65 of both Ub molecules (UniProt P0CG47, K6R); assay: pull-down
NEMO UBAN (aa 257–364) = NEMO UBAN (aa 257–364) (human, UniProt Q9Y6K9 257-364); assay: pull-down
M1-linked diubiquitin [4] = target: M1-linked diubiquitin (UniProt P0CG47); assay: pull-down
crystal structure = target: the molecule itself; assay: crystal structure
M1-linked diubiquitin [5] = target: M1-linked diubiquitin (UniProt P0CG47); assay: crystal structure

B1: GST-tagged TAB2 NZF (aa 585–693) (domain or fragment)
chain: QIPSLEEMQQLRSCNRQLQIDIDCLTKEIDLFQARGPHFNPSAIHNFYDNIGFVGPVPPKPKDQRSIIKTPKTQDTEDDEGAQWNCTACTFLNHPALIRCEQCEMPRHF
binding result [1]: binds
binding result [2]: binds
binding result [3]: binds

RGRWACQSCTFENEAAAVLCSICERPRLA (domain or fragment) [His6-SUMO-HOIP NZF1 (aa 351–379)]
binding result (NEMO UBAN (aa 257–364)): binds

B2: NEMO UBAN (257–364) K285C/C347S chemically ubiquitinated on K285C with Ub G76C (other)
chain 1: GMQLEDLKQQLQQAEEALVAKQEVIDKLCEEAEQHKIVMETVPVLKAQADIYKADFQAERQAREKLAEKKELLQEQLEQLQREYSKLKASSQESARIEDMRKRHVEVS
chain 2: […]
binding result (M1-linked diubiquitin [4]): binds

B3: OPTN UBAN (aa 419–512) C472S, S473E (domain or fragment)
chain: DRAVLKELSEKLELAEKALASKQLQMDEMKQTIAKQEEDLETMTILRAQMEVYSEDFHAERAAREKIHEEKEQLALQLAVLLKENDAFEDGGRQ
binding result (crystal structure): binds

RGRWACQSCTFENEAAAVLCSICERPRLA (domain or fragment) [HOIP NZF1 (aa 351–379), as crystallised]
binding result (M1-linked diubiquitin [5]): binds
